# T1: Candida albicans Ino4 (C. albicans, UniProt A0A1D8PH18 1-130)
# T1 sequence: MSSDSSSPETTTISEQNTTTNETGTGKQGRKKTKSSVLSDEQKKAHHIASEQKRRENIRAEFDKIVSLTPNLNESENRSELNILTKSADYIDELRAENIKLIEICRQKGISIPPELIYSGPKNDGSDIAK
# B1: Candida albicans Ino2 (natural protein)
# chain: MSSTVTQTMNNNPTEKVTFTASNSQADFDLLDIFSNDMDFEQAYDMYNNLQEKNAMGSFEQLQKVQALNQQYVSNLQPPSSAQFPDQFAYERAQILNGEYNKQSGLMNDATNKNYSFNDDTFDQFFTNTESNALEKFLDNLANPVASVNPLQFYNNTRTSVPDEDVDLSFELHTMKVPQQFKPRSQSLEHNPPLQQKVRFTEEEHAALKQELTEAFAHPCTQLPSPSTTEYKPKPTTPKVVKQFVTPPNSGDESRKRNSDIESDESEEETTPTTKKRKRTSSKPLLSVEQKRLNHSHSEQKRRQLCKFAYQRCLELIIDLDAFNKLPELNESERKSKRARVNKDGLPNLSKHNALIRISNEMILIKSMNDSLKKLIENR
# Target: T1, Candida albicans Ino4
# Experiment: two-hybrid
binder,measurement,value
B1,"galactosidase activity, fold of the background activity",2.5 fold
